This data set can be described thus: label from the status in PepcDB records.

For “MRTLVAPTHAPKRRMLLALLATPALALAQPAWTQQPPPVKLDVPYVPTPDDAVARMLEMADVTAQDTVIDLGSGDGRIAIAAVRDRGARSAMGVDIDPERIAEARANARKAGLADRVTFVQQDLFDTDISKATVLTMYLLPDVNLKLRPRILNSLAPGTRVVSHAFTMGEWDSDRYELVDGRSLYLWVVPAHAAGDWQVEDPAGPFTLSVRQDFQKVTASAQRQGERLGVAEAALRGTDLRFTVDAGSGPRTYVGRIQGDRMTAVQAPGNESGWRATRRAP”, the protein production result is “failed”.
Consider “MRTPAWLGSGMPLLFVLLWSTGFLGAKFGLPYAEPFTFLAIRLLLAAALLAAFALLSGAPWPGSARLAGHVAVAGLLVHGLYLGGVFLAIEHGMSAGLTSLLVGLQPLATAALAGIWLGEQVSRRQWLGLALGLAGVALVVLGRIHGGADGLAWAAVLVALAAITCGTLYQKRFCGGMDLRTGGVVQYLASGALLGLAALLFESREVQWSTPFVLTLGWLVLGLSFGAVGLLYTLIRHGAASKVASLFYLVPPVTALASWLLFDERLAPAAIGGMLLVMLGVALVNWPGRRA”, for which the protein production entry is “failed”.
With “MRTPRRAPEPVQVVKQRRDATLRALVDGVPYIQFLGIEFERRGDELTGILPFDQKLIGNPLLPAIHGGVTAAFLEVTAIITLSWTYLWEDMESGAIDAKGLASGGMPRLPKTIDISTDYLRSGLPRDAYARARIVRSGRRYASVHVEAWQDNRDRLFAQATGHFLMPDRRDS” the entry was “failed”.
With “MRTVPSLSMSKSRCNMLASTLDRPSPEDSQTLAEVERTITSGVGALCFSRGLERRYQTETRLQRREFLTAMGIGGSLIYNLFLITDWLILRDVFVYVAIGRLCLITPMFIIMLILARRLASRRAMETTAAVATVLCSLMPMVVMTYSESPYQIFYQLGMLLIMVYCTMIQQLPLRHAAAALSCMLIIQLVTTYIADFADFVIWQANALLFVSTVMLLLMASYFLERASRLSYLFALRGRLLQVQLLEFARTDALTRLFNRRYQDEVLTSVWERARKKQANVAIILLDIDHFKSYNDNYGHPQGDVCLKLLCKAIQQSANDGGAVAFRFGGEEVLVLMNADADQATKMAETLKATVAALKLPHPALGEDAHVTISLGVASGIAPLITYDTLISAADNALYAAKHAGRNCVFCQP”, the protein production result is “failed”.
The same measure for “MRVAVAGGTGLVGKYVVAELRAAGHTPVVLARSHGVDLTTGAGLAGKLSGSDAVIDVANIVTTRRKTAVDFFSRTTGHLIAAARAGGVAHLVTLSIVGSDEVDFGYYFGKRAQEELVRDGAVPWTVVRATQFFEFPEPLLNGVSPVVVVPRMLTRPVAAQDVAQTLVEHAVEGPAGMAPEIAGPDQLDMVDMARRIARARGSRRLVVPVTLPGKVGKAMTTGGLLPRGEYLRGRRTFDAHLASLRAA”: “failed”; for “MRVDGLNGRPHSHWVINKVIGDSTMTFSNAQRLRPVRRHAIFQACALGFALALASGSAFAAAALTQPAQDPAKVAPASLAVSKIDFKRGEDGTGRLILQFNGQGASPDLRTQGDNVLVDISNARLPAELQRPLNVTDFATPVQRVEVKPSGSGSQLVLSTKGAFDSLAYQTGNEYVVEITPRKGQPAVGGVSPAAVTQAAAQIAARGYSGRPVTFNFQDVPVRTVLQLIAEESNLNIVASDTVQGNVTLRLMNVPWDQALDIVLRAKGLDKRRDGGVVWVAPQPELAKFEQDKEDARIAIENREDLITDYVQINYHNAAVIFKALTEAKGIGGGGGSGGGQGGQGGAGQQDNGFLSPRGRLVADERTNTLMISDIPKKVAQMRELISHIDRPVDQVLIESRIVIATDTFARDLGARFGIIGATGRGILSGSLDSNTNYLNTSAKRASEIANGGTSTTLPAHLFPSGLNVNLGAGGGFTTNTPGGLAYTLLGSNFNLDIELSAMQQEGRGEVVSNPRIVTANQREGVIKQGREIGYVTISGSGAGGGSQANVQFKEVLLELKVTPTITNDNRVFLNMNVKKDEVARLIDLPLYGTVPEINRREINTAVLVGDGETVVIGGVYEFTDRESVSKVPFLGDIPFLGNLFKKRGRSKEKAELLVFVTPKVLRVASATR”: “failed”.
Take “MRVDRSSSSSTVSLLEGKIYVAGGFDPKTHTWSSVTSPSAVIRNESVAEHKSLGLGGKFYLFGYDSDKSAVVYNPKEDNVLFYRFHGLFHWYDYKGNFWKQVNGLGPVACTEKVAILAALDTFDNAR”: the protein production result is “failed”.
The same measure for “MRVGVLGAKGKVGATMVRAVAAADDLTLSAELDAGDPLSLLTDGNTEVVIDFTHPDVVMGNLEFLIDNGIHAVVGTTGFTAERFQQVESWLVAKPNTSVLIAPNFAIGAVLSMHFAKQAARFFDSAEVIELHHPHKADAPSGTAARTAKLIAEARKGLPPNPDATSTSLPGARGADVDGIPVHAVRLAGLVAHQEVLFGTEGETLTIRHDSLDRTSFVPGVLLAVRRIAERPGLTVGLEPLLDLH”: “not failed”; for “MRVISRNLTAWSAGLIVVAIFLGAWLSHPLHRISGFAVTPAPVGTESLPPKASYSSRFASSDLNDFVHSSAVTALPGGDLMSVWFAGSREGAGDVEIRTSRFDAQAEEWGGEQVLATRESTQTGTGKYIRKLGNPVIALAPDNRLWLFYVSVSVGGWAGSSVNAMVSSDMGASWSAPRQLVTSPFLNISTLVRGAPVFHADGSIGLPVYHEFLGKFAEYLYLSADGEVIDKFRISRGKNSLQPTVVPLDGQRAVALLRYAGETFHRVLASRTEDGGQTWSEPYPLAPSNPNSSLAAVGVPGKGLLVALNDLREGRFKLSLYSTDEQMKVWRPLPDLDKSPDPLGTPFSLEVYKEVIGQGFRASSGALRQPMEAEFLSNLDQRVCAPQGCDFEYEYPYFIRSPDGLYHLVYSWNNTFIKHVSFNEAWLAEQLL”: “failed”; for “MRVIVAYDGSPGADKAVGFALGLKDSIDKYFILYVSRDITDLSGQLVYISDETVEQQERLADEIVNKAKSLMTRSGVDYEVMKVDSNGEDISKVIVKIAQEKGIDVIFTGTRKLRGLDKFFLGSISSGILALSSCPVIVVP”: “not failed”.
The same measure for “MRVLHETTQELANWQYYFAIAVFLITYAIIISEKINRAVIALLGAALMVIMGVVDLHNAFTKHIEWGTITLLIGMMILVNITSKSGVFQYVAIKAAKGAQGNPIKILISLSLLTALGSAFLDNVTTVLLVVPVTLSITRILQVNPVPYLLSEIIFSNIGGTATLIGDPPNIMIGSANKHLDFNAFLLNLAPIVIIIIAVTAAILYFMYRKQLIADPVQVKKLMSLDEKQYIKDPVLMKKSLTVLGLTIVGFMTHSIFHVDAAIIALTGATVLMLIGVKEHEIEEVFASVEWVTIFFFAGLFVLVGGLIDIGLIKMLAQKVIGITGGDISYASILILWVSGIASATIDNIPFVATMIPLINDMAVGLGLSPADAQIDVLWWALALGACLGGNGTLIGASANVIVAGIASREGHKFSYMDFLKVGFPIMIVSLIISHIYIYVRYLM”: “failed”; for “MRVLKFGGSSLADADRFLRAADIIANNAQQEEVAVVLSAPGKTTNKLVAVIEGALRNGEAELQINELEESFKTLFADIQAVLPNLEGAAFDNQVKTSLSQLRQFVHGINLLGMCPNNVNAR”: “failed”.
As for “MRVLVVGANGKVARYLLSELKNKGHEPVAMVRNEEQGPELRERGASDIVVANLEEDFSHAFASIDAVVFAAGSGPHTGADKTILIDLWGAIKTIQEAEKRGIKRFIMVSSVGTVDPDQGPMNMRHYLVAKRLADDELKRSSLDYTIVRPGPLSNEESTGKVTVSPHFSEITRSITRHDVAKVIAELVDQQHTIGKTFEVLNGDTPIAKVVEQL”, the protein production result was “not failed”.
For “MRVMRICLVGLGAVGQGFLRAVQMKGEYLRERYGLDIRFTGVADSSGALHDPDGLDIRGVLEHKKRAGLGSHPSGYEGMTGDELLDEAEYDCLVEATPTNIEDGEPGRSLVLKAMGDGKHVVTSNKGHLALFYSELMEAASEAGVEFMFEASVGGAMPIINLARETLASCTIESVIGILNGTTNFILSRMASEGSSYRQALIEAQELGIAETNPAQDVEGTDAACKAVIIANSILGRPCTLRDVRVEGITGITQGAIELAAQEGYLIKLIAEISGDRLEVGPRLVRMGSPYAVDGTLNMATLRTDLAGEVTAVGRGAGSLETASAMLTDTITIWRKSGGR”, the protein production entry was “failed”.
Consider “MRVTYWRDESLQKNDRSHIKAYALMSGILAQLVGSILVGIFGGQWIDNKVGTFPLFLIIGLLLGLGTGVYAMIRLIRHYYSGEQ”, for which the protein production entry is listed as “failed”.
With “MRVVVMGCGRVGASVADGLSRIGHEVAIIDRDSAAFNRLSPQFAGERVLGQGFDRDVLLRAGIQGADAFAAVSSGDNSNIISARLARETFGVPRVVARIYDAKRAEVYERLGIPTIATVPWTTDRLLNALMQDTETAKWRDPTGTVAVAEVVLHEDWVGHRATDLEQATGARIAFLIRFGTGVLPEPKTVLQAGDKVYIAAISGRAAEAAAIAALPPSEDFESGARR” the entry was “failed”.
In the case of “MRWDVVAWAVLALLLIAAETLAPGAFLLWMGIAAAAVCVLVLAVPGTSVLLQIVAFVVLSFVAIQVYRTWFRGKGRQSDRPLLNRRAEQLIGRSVLLDQAIVDGRGRAKVDDAFWVVSGPDLPAGALVRIVAVDGMTLQVQPNT”, the protein production result is “failed”.
Take “MRYEKMNQEILAAIGGEENIQSVVHCATRLRFVLKDESKADDKKAEAIDGILQVVKKGGQYQLVIGNNVEDVYDDLINMIHIETSDSNKPKKKQNLFDAIIGAITGSIAPAIPLLAGAGMGKVLLLILTICHVLSDKSQTYQLLNLIFDTGYYFMPAYVGFSAAKIFNTDRMLGAFIGLMTVHPSWVQIVTTNKPFHFLGLPVPLVQYSSTLITAILSVWIMSYIYKFVRKITPGMVKVFMEPMLTMLITGPLVFLIIGPISNWISEGIGFIAMWLFRNAGVIAIPILAALYPWLVSIGIHKALSPISIQLVATQGFDPIIRVVALCSNMSQAAASLAVGLKTKNKKLKSLALSSSVTAYLGGITEPALFGVNLRLKKPMYGAMIGGAIAGIVASFMKLKAFIYVTPAFLSLPMWISKTENFVVQAIIVIIVASVATFIATWIIGFDDPIDEDQVKNAKKEEKKNFDKDHKKHELHAPVKGQLEDISKVADPTFASGVMGKGIAIVPSEGKIFAPEDGVVTAIFDTHHAIGLHLSNDADVLIHVGIDTVEMKGKGFKQLVQKGDKVTAGQELLDFNIDEIKKNGYDPTVVMIVTNSKDFLEVLTVLKDKDATKEVTNQDNVIILA”: the protein production entry is listed as “failed”.
On to “MRYLIGGIFLLISIWQFIVTGRTFSYLKKEGGKRTSPFILLGLWSSLVFAIISFAVAIASFFYVSF”, for which the protein production result is listed as “failed”.
The same measure for “MRYLVWALRLLVFVAVLMFALKNTNPVAVTFYADYVVHDVPLIVVMLVVFVVGALFGLLLTVPAAMRRRREALRLRREVERLQAAASGTPPVVTPEAVAPMSPL”: “failed”; for “MRYRRAARPVATVLIHAMQTYPLVFHASPDQTIAWRDGAPVAVRTFLAEVAQLAAALPAGAHVFNACTDRYRFTVGLCATLVAGKISLLPASQTPETVRRLAAFAPDVFCLHDAPDCAIALPRFRFPEPLPPAGADAPVDVPQIDASRVMAYIFTSGSTGTPVPHRKTWGALVEGVRASAARLGLLDAHACTLVGTVPPQHMYGFESTVLLALVGGLAFSNRLPFYPADIRAALEAVPQPRVLVTSPIHLRALLSSERALPPAALVLSATAALPEPLASEAEARLAAPLIEIYGSTETGQIATRRTAQGATWHLQPGIRLEARAGTPDEDGPVTWASGAHLDAPVPMGDTLELIDDTHFLLHGRKADLINVAGKRTSLAYLNHQLNAIPGVEDGVFFMPSAADNGSEPPARLAALVVAPELAAADLLHALRERIDPAFLPRPLLLVEALPRDATGKLPRDALAALIAQHGHRGARAGAPAPITFTIPADHPALPGHFPGHPIVPGVVLLDQAIRRIGAALNRPFDACRLSSAKFLSPAAPGVPLALAFEATASGAIRFTVSAGEREVASGVLAQQEAARP”: “failed”.

The record behind these values is a protein production outcome set (Wang et al. 2014).
